Assay results published in the nanobody polyreactivity screen of Harvey et al. (2022).

assay: yeast display, Sf9 membrane polyspecificity reagent, FACS + sequencing; frameworks hold sequencing errors
Procedure, shortened: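 Sorting gates, low and high (top ~1%), were placed on anti-HA fluorescence to track expression and on streptavidin fluorescence to track reagent binding. A clone's polyreactivity label is taken from the gate it came out of. The reagent was 10% biotinylated, detergent-solubilized Sf9 membrane, applied for 1 hour at 4 °C to galactose-induced yeast display cells.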

Row | Sequence | polyreactivity (PSR sort gate)
1 | QDQLVESGGCLVQAGGSLPLSCAASVFTFSNNVMGWYRQAPGQVRELVATLSKSGGSTYYAVSVKVRFTISRDKAKNSVYLQMNSLNPEATEVYYCASRFGDYGRFAYWGQGTQVSVSS | high polyreactivity
2 | QDQLVESGGCLVQAGGSLRLSCAASGGTFLYYAMGWYRQAPGKERELVAAISRGGSTHYADSVKGRFTISRDNAKNTVYLQMNSLKPEDTAVYYCAAVRSHRKRINFYDYWGQGTQVTVSS | low polyreactivity
3 | QDQLVESGGCLVQAGGSLRLSCAASGGTFRVYAMGWYRQAPGKERELVAAITGRGGSTYYADSVKGRFTISRDNAKNTVYLQMNSLKPDDTAVDYCNKEPELVEYDYWGQGTQVTVSS | low polyreactivity
4 | QDQLVESGGFLVQAGGSLRLSCAASGRTFSYYDMGWYRQAPGKERELVAAISSGGSTNYADSVKARFTISRENAKNTFYLQMNSLKPEDTGVSYCATSCIWGYGRVRWVTYYYWGQGTQVTVSS | low polyreactivity
5 | QDQLVESGGGFVQAGGSLRLSCAASGFIYDNEMGWYRQAPGKERELVASITSRGGNTYYADSVKGRFTISRDNAKNTVYLQMNSLKPEETAVYYCAARYYWGSYGPYGYWGQGTQLTVSS | high polyreactivity
6 | QDQLVESGGGFVQAGGSLRLSCAASGFTFGSNTMGWSRQAPGKERELVAAITTSGDSTYYADSVKGRFTLSRDNAKNTVYLQMNSLKPEDTAVYDCAARRGYPRFEYWGQGTQVTVSS | high polyreactivity
7 | QDQLVESGGGIVQAGGSLRLSCAASGFTFLYSAMGWYRQAPGKERELVAAINRSGGRTYYADSVKGRFTISRDNAKNTVYLQMNSLKPEDTAVYYCATDTYFRSSVVFRYDYWGQGTQVTVSS | high polyreactivity
8 | QDQLVESGGGIVQAGGSLRLSCAASGSTFWHNVMGWYRQAPGKERELVAAISTAGSSTYYADSVKGRFTISRDHAKNTVYLQMNSLKPEDTAVYYCAAQWPKSKYGYWGQGTQVTVSS | high polyreactivity
9 | QDQLVESGGGLDQAGCTLRLSCAASVGTFRYYAMGWYRQAPGKERELVASISSGGSTNYADSVKGRFTISRDNAKNTVYLQMNSLKPEDTAVYYCNADPRRPVTSYDYWGQGTQVTVSS | low polyreactivity
10 | QDQLVESGGGLDQAGGSLRLSCAAYGSTFGYYALGWSRQAPGKERELVAAISWSGSNTYYADSVKGRFTISRDNAKNTVYLQMNSLTPEDTAVYYCAAVYRGSRAWGYDYWGQGTQVTVSS | high polyreactivity
11 | QDQLVESGGGLLQAGASLRLSCAASGFIFDSYAIGWDRQAPGKERELVAAITSSGSSTYYADSVKGRFTISRDNAKNTVYLQMNSLKPEDTAVYYCNAVYSATVVAWRFGYWGQGTQVTVSS | high polyreactivity
12 | QDQLVESGGGLVQAGASLRLSCAASGFIFVFNAMGWYRQAPGKERELVAAINGGDITNYADSVKGRFTISRDNAKNTVYLQMTSLKPEDTAVYYCAADGEDSLWTGYDYDYWGQGTQVTVSS | low polyreactivity
13 | QDQLVESGGGLVQAGASLRLSCAASGSIFYHNTMGWYRQAPGKERELLTYYADSVKRRFTISRDNAKNTVYLQMNSLKPEDTAVYYCAASPVSRTGPGDYDYWGQGTQVTVSS | low polyreactivity
14 | QDQLVESGGGLVQAGCSLRLSCDASGSTSYGYAMGWYRQAPGKERELVASISYSGSSTYYADSVKGRFTFSRDNAKNTVYLQMNSLKPEDTAVYYCNAKVYPCVGPKHRYDYWGQCTQVTVSS | low polyreactivity
15 | QDQLVESGGGLVQAGGILRLICAASGLTFASYGMGWYRQAPGKERELVAAISSSGGITYYADSVKGRFTISRDNAKNTVYLQMNSLKPEDTAVYYCAAAKRSGYTGFKYYYWGQGTQVTVSS | high polyreactivity
16 | QDQLVESGGGLVQAGGNLRLSCAASGSIFSDYTIGWYRQAPGKERELVADITLSSGSTYYADSVKGRFTISRDNAKNTVYLQMNSLKPEDTAVYYCAADGWYYFRSGDFEYDYWGHGTQVTVSS | low polyreactivity
17 | QDQLVESGGGLVQAGGRLRLICAAAGLIFVSNAMGWYRQAPGKERELFASISWSGGSTYYADSVKGRFTISRDNAKNTVYLQMNSLKPEDTAVYYCAAAKYVTYLSIYYYWGQGTQVTVSS | high polyreactivity
